# Measurements as given in patent US20230323466A1, “DETERMINING CANCER RESPONSIVENESS TO TREATMENT” (Queensland University of Technology, priority 2020, published 2023).
# System: EGFR
# Assay: EGF stimulation of EGFR wildtype cells, western blot of CDCA3 (FIG. 11)
# Assay type: cell-based
# Settings: EGFR wildtype cells stimulated with EGF
# Source text: FIG. 11. CDCA3 levels are elevated in EGFR^mutNSCLC cell lines. Stimulation of receptor tyrosine kinase (RTK) signalling in EGFR wildtype cells induces the upregulation of CDCA3 protein.
# The current Example examined whether elevated CDCA3 was as a result of activating mutations in epidermal growth factor receptor (EGFR) that solely occur in cases of NSCLC adenocarcinoma. In in vitro models of disease, CDCA3 protein levels were examined by western blot analysis and it was identified that CDCA3 protein is markedly elevated in EGFR mutant NSCLC cell lines versus EGFR wildtype cell lines (FIG. 11). The present inventors also identified that stimulation of EGFR wildtype cells with EGF, an EGFR ligand, induced PI3K-Akt downstream signal transduction and the upregulation of CDCA3 protein. PI3K-Akt was constitutively activated in EGFR mutant NSCLC cell lines.
molecule,measurement,value
"EGF: an EGFR ligand (protein, UniProt P01133 23-1207, looked up, Pro-epidermal growth factor, an EGFR ligand) Pro-epidermal growth factor: PQHWSCPEGTLAGNGNSTCVGPAPFLIFSHGNSIFRIDTEGTNYEQLVVDAGVSVIMDFHYNEKRIYWVDLERQLLQRVFLNGSRQERVCNIEKNVSGMAINWINEEVIWSNQQEGIITVTDMKGNNSHILLSALKYPANVAVDPVERFIFWSSEVAGSLYRADLDGVGVKALLETSEKITAVSLDVLDKRLFWIQYNREGSNSLICSCDYDGGSVHISKHPTQHNLFAMSLFGDRIFYSTWKMKTIWIANKHTGKDMVRINLHSSFVPLGELKVVHPLAQPKAEDDTWEPEQKLCKLRKGNCSSTVCGQDLQSHLCMCAEGYALSRDRKYCEDVNECAFWNHGCTLGCKNTPGSYYCTCPVGFVLLPDGKRCHQLVSCPRNVSECSHDCVLTSEGPLCFCPEGSVLERDGKTCSGCSSPDNGGCSQLCVPLSPVSWECDCFPGYDLQLDEKSCAASGPQPFLLFANSQDIRHMHFDGTDYGTLLSQQMGMVYALDHDPVENKIYFAHTALKWIERANMDGSQRERLIEEGVDVPEGLAVDWIGRRFYWTDRGKSLIGRSDLNGKRSKIITKENISQPRGIAVHPMAKRLFWTDTGINPRIESSSLQGLGRLVIASSDLIWPSGITIDFLTDKLYWCDAKQSVIEMANLDGSKRRRLTQNDVGHPFAVAVFEDYVWFSDWAMPSVMRVNKRTGKDRVRLQGSMLKPSSLVVVHPLAKPGADPCLYQNGGCEHICKKRLGTAWCSCREGFMKASDGKTCLALDGHQLLAGGEVDLKNQVTPLDILSKTRVSEDNITESQHMLVAEIMVSDQDDCAPVGCSMYARCISEGEDATCQCLKGFAGDGKLCSDIDECEMGVPVCPPASSKCINTEGGYVCRCSEGYQGDGIHCLDIDECQLGEHSCGENASCTNTEGGYTCMCAGRLSEPGLICPDSTPPPHLREDDHHYSVRNSDSECPLSHDGYCLHDGVCMYIEALDKYACNCVVGYIGERCQYRDLKWWELRHAGHGQQQKVIVVAVCVVVLVMLLLLSLWGAHYYRTQKLLSKNPKNPYEESSRDVRSRRPADTEDGMSSCPQPWFVVIKEHQDLKNGGQPVAGEDGQAADGSMQPTSWRQEPQLCGMGTEQGCWIPVSSDKGSCPQVMERSFHMPSYGTQTLEGGVEKPHSLLSANPLWQQRALDPPHQMELTQ",CDCA3 protein,upregulation
